Assay results reported in patent publication US20260193346.

Legend:
[1] = target: murine LTBP4 TP2E fragment (UniProt Q8K4G1)
[2] = tested on: T1, human LTBP4 TP2E fragment (amino acids 357-586)
T1 sequence: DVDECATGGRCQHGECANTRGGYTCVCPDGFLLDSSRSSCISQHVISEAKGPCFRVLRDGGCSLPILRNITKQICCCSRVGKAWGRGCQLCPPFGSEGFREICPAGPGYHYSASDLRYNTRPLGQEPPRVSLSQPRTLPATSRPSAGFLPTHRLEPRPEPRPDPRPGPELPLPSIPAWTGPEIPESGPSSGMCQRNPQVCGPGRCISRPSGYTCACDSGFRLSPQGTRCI

[3] = target: murine LTBP4 deleted for the 12 amino acids (expressed fragment, FIG. 5) (UniProt Q8K4G1)
[4] = tested on: T2, human LTBP4 proline-rich region fragment (FIG. 5)
T2 sequence: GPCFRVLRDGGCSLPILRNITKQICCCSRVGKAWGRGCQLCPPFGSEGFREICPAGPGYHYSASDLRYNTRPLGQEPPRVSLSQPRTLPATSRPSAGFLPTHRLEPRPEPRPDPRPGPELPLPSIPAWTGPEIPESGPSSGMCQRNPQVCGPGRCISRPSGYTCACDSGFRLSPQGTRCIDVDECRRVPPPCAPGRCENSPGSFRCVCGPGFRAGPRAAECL

[5] = tested on: human latent TGFβ binding protein 4 (LTBP4), full-length
[6] = target: T3, Murine LTBP4 with the 12-amino-acid insertion (expressed fragment, FIG. 5) (UniProt Q8K4G1)
T3 sequence: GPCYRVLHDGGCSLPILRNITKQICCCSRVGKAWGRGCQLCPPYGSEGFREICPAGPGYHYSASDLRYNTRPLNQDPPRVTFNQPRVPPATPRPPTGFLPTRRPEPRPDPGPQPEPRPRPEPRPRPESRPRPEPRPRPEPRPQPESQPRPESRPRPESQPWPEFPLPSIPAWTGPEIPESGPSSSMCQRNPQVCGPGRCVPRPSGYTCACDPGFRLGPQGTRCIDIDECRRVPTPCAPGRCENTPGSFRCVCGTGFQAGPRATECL

Chain of plasmin (P00747 20-580): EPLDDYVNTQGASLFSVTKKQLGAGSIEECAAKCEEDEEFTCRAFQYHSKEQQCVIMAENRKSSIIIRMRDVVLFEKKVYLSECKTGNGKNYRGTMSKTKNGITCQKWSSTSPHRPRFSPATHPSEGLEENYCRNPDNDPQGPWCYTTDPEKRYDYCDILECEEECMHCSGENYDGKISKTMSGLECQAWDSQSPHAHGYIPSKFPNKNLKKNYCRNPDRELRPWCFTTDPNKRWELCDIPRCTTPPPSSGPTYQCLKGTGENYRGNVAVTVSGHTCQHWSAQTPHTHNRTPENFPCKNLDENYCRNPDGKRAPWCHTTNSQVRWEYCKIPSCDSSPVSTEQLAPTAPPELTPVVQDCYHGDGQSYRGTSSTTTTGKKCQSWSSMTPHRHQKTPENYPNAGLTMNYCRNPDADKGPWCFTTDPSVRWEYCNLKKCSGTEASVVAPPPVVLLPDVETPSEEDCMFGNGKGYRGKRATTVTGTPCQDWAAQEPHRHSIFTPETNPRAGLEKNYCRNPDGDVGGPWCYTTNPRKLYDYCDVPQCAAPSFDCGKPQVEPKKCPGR
Chain of plasmin (P00747 581-810): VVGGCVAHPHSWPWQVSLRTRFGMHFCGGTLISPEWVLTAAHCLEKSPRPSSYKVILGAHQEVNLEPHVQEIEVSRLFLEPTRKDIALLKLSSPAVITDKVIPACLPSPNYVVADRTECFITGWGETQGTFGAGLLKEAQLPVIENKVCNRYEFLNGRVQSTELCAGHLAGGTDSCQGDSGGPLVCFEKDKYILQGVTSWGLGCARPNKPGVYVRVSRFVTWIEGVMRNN
Chain of human latent TGFβ binding protein 4 (LTBP4), full-length (chain, as listed by the source): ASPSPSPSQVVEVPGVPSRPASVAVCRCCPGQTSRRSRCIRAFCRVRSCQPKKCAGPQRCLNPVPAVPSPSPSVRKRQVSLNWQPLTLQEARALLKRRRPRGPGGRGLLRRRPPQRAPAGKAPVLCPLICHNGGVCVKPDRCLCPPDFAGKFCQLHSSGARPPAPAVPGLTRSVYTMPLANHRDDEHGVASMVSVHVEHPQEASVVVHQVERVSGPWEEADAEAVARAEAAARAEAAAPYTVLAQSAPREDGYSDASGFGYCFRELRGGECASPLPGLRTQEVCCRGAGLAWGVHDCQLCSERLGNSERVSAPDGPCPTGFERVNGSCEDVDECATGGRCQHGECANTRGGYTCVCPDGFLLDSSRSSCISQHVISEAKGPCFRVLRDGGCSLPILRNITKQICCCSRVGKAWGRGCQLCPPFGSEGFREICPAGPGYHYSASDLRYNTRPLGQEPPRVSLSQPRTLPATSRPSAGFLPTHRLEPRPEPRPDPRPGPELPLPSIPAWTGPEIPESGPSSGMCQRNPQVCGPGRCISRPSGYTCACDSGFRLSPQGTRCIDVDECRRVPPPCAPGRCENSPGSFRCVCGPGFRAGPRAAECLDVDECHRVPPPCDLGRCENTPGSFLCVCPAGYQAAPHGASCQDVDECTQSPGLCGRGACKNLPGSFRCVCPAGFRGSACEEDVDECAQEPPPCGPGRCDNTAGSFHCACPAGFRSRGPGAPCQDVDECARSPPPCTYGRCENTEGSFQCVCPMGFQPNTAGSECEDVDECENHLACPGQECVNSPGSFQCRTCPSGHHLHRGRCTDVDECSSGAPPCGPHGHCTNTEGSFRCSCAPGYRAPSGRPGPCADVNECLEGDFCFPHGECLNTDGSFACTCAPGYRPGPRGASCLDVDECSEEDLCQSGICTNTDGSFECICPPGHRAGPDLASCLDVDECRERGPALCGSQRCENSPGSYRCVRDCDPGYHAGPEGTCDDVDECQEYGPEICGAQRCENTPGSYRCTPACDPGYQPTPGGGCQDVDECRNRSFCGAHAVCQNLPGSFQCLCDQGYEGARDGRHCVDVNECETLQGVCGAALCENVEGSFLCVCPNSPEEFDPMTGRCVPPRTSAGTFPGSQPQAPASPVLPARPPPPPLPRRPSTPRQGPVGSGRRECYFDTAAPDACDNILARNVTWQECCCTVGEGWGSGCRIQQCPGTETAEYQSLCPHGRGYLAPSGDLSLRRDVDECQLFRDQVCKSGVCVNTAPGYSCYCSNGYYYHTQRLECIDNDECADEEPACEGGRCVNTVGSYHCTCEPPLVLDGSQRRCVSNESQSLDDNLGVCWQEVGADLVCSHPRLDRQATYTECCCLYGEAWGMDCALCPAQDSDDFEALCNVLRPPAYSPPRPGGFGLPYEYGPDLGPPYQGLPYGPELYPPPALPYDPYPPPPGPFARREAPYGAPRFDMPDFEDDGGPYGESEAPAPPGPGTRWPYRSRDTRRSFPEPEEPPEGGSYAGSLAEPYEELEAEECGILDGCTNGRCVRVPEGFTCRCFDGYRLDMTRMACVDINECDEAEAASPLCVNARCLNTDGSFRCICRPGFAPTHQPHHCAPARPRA

Row | Substance | proteolytic digestion of 35S-labeled fragment (dose-response and time course) [1] | proteolytic digestion of 35S-labeled fragment (dose-response and time course) [2] | proteolysis of expressed labeled fragment by plasmin [3] | proteolysis of expressed labeled fragment by plasmin [4] | plasmin proteolysis of full-length LTBP4 [5] | proteolysis of expressed labeled fragment by plasmin [6]
1 | elastase | the human TP2E fragment is more readily cleaved than the mouse LTBP4 sequence | the human TP2E fragment is more readily cleaved than the mouse LTBP4 sequence |  |  |  | 
2 | plasmin | the human TP2E fragment is more readily cleaved than the mouse LTBP4 sequence | the human TP2E fragment is more readily cleaved than the mouse LTBP4 sequence | the murine LTBP4 deleted for the 12 amino acids was readily degraded | The human LTBP4 was most readily degraded | Full-length LTBP4 protein, produced from cultured cells, is also susceptible to plasmin proteolysis | Murine LTBP4 with the 12-amino-acid insertion was largely resistant to proteolysis
